The source of these data is PMC3642127, “Distinguishable In Vitro Binding Mode of Monomeric TRBP and Dimeric PACT with siRNA” (PLoS ONE, 2013).

Where a chain is given by its changes, count along the chain named.

The target of data set [1] is T1, TRBP-WT (human, UniProt Q15633 1-366).
T1 sequence: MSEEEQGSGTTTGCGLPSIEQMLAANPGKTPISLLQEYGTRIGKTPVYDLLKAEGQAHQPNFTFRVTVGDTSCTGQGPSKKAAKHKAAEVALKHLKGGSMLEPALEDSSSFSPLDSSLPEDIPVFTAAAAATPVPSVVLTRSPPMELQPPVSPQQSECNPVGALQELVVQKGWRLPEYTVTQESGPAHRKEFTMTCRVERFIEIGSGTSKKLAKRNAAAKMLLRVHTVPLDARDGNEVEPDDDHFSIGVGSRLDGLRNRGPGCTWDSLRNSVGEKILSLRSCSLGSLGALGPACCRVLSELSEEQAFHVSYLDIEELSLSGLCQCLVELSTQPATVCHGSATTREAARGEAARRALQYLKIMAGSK
The data set can be described thus: EMSA; EMSA: 20 mM Tris pH 7.5, 150 mM NaCl, 2 mM EDTA, 1 mM 2-mercaptoethanol, 1 mM DTT, 50 ng/ul salmon sperm DNA, 0.4 U/ul RNasin, 0.5 nM 32P-siRNA, 30 min on ice. To be noted: protein: recombinant, tags: N-His6;C-myc, label: 32P.

Data set [2] concerns the molecule itself. In words: native gel or EMSA; purified protein 0-1,300 nM with 0.5 nM 32P-labeled siRNA, 30 min on ice; 20 mM Tris pH 7.5, 150 mM NaCl, 2 mM EDTA, 1 mM 2-mercaptoethanol, 1 mM DTT, salmon sperm DNA, RNasin; 9% polyacrylamide gel; Kd from siRNA-binding curves; complex 2 = second protein molecule joining the protein-siRNA complex 1. (In EMSA bound probe runs differently from free probe, usually more slowly.)

In data set [3] the target is T1, TRBP-WT. In words: EMSA; complex 1 (monomer); EMSA: 20 mM Tris pH 7.5, 150 mM NaCl, 2 mM EDTA, 1 mM 2-mercaptoethanol, 1 mM DTT, 50 ng/ul salmon sperm DNA, 0.4 U/ul RNasin, 0.5 nM 32P-siRNA, 30 min on ice. To be noted: protein: recombinant, tags: N-His6;C-myc, label: 32P guide strand.
Data set [4] deals with T2, PACT-WT (N-terminal His- and C-terminal myc-tagged protein activator of PKR) (human), O75569.
T2 chain: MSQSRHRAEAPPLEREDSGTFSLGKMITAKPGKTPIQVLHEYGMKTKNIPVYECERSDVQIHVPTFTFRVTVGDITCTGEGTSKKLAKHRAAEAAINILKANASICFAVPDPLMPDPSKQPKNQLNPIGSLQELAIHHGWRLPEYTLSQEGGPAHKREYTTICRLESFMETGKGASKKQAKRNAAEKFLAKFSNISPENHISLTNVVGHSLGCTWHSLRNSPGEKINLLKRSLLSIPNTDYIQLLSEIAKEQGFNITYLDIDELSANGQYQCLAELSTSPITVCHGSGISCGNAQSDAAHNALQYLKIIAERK
In words: SEC; Superdex 200 HR 10/30; purified protein (TRBP proteins 1,300 nM, 330-1,300 nM in Figure S3; PACT concentration not stated) pre-incubated with siLuc-36 siRNA (300 nM) 30 min on ice; 20 mM Tris pH 7.5, 150 mM NaCl, 2 mM EDTA, 1 mM 2-mercaptoethanol, 1 mM DTT; fractions blotted with anti-myc. Particulars: remark: other sources report otherwise. Background: Size exclusion chromatography separates by hydrodynamic size, large species first.

Data set [5] concerns the molecule itself. The description is as above.
Data set [6] concerns the target T3, TRBP-ΔdsRBD3 (human, UniProt Q15633 1-292).
T3 sequence: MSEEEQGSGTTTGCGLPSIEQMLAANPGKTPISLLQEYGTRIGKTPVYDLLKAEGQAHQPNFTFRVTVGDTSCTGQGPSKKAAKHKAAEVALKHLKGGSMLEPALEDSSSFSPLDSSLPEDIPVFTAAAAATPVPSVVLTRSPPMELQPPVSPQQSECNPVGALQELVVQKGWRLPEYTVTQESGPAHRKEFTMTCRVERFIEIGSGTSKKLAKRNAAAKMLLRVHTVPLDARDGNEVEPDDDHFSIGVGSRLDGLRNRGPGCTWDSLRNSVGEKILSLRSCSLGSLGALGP
The data set can be described thus: EMSA; complex 1; EMSA: 20 mM Tris pH 7.5, 150 mM NaCl, 2 mM EDTA, 1 mM 2-mercaptoethanol, 1 mM DTT, 50 ng/ul salmon sperm DNA, 0.4 U/ul RNasin, 0.5 nM 32P-siRNA, 30 min on ice. To be noted: protein: recombinant; tags: N-His6;C-myc; label: 32P guide strand; 2 nt 3' overhangs.

B1: dsDNA_Luc-36 (dsDNA)
DNA 1: TCTTCCAGCGGATAGAATGGC
DNA 2: CATTCTATCCGCTGGAAGATG
Consider B1, for which the binding result in data set [1] is “no binding”.

B2: TRBP-dsRBDmt1 (natural protein, human, UniProt Q15633 1-366, looked up)
chain: T1 sequence with K80A, K81A
notes: full length human TRBP with lysines 80 and 81 in dsRBD1 replaced with alanines; source: E. coli Rosetta (DE3) pLysS, purified (Ni-NTA agarose); not shown: His6, N-terminal, kept; myc, C-terminal, kept
For the molecule B2, the binding result in data set [2] is listed as “binds”.

B3: TRBP-dsRBDmt2 (natural protein, human, UniProt Q15633 1-366, looked up)
chain: T1 sequence with K210A, K211A
notes: full length human TRBP with lysines 210 and 211 in dsRBD2 replaced with alanines; source: E. coli Rosetta (DE3) pLysS, purified (Ni-NTA agarose); not shown: His6, N-terminal, kept; myc, C-terminal, kept
For B3, the binding result in data set [2] was “binds”.

B4: siLuc-1430 (dsRNA)
RNA 1: CGGCGGCGGGAAGUUCACCGG
RNA 2: GGUGAACUUCCCGCCGCCGUU
Turning to B4, the dissociation constant Kd in data set [3] (2 nt 3' overhangs) stood at 5.7 nM.

B5: siLuc-48 (dsRNA)
RNA 1: CCAGCGGUUCCAUCUUCCAGC
RNA 2: UGGAAGAUGGAACCGCUGGAG
For the molecule B5, the dissociation constant Kd in data set [3] (2 nt 3' overhangs) was 33 nM.

B6: siLuc-36B (dsRNA)
RNA 1: UCUUCCAGCGGAUAGAAUGGC
RNA 2: GCCAUUCUAUCCGCUGGAAGA
As to B6, the Kd in data set [3] (blunt) worked out at 4.5 nM.

B7: PACT-WT (N-terminal His- and C-terminal myc-tagged protein activator of PKR), O75569 1-313 (natural protein)
chain: T2 chain
B7 had a stoichiometry N in data set [4] of 2.

B8: PACT-dsRBDmt2 (natural protein, human, UniProt O75569 1-313, looked up)
chain: T2 chain with K177A, K178A
notes: human PACT with lysines 177 and 178 in dsRBD2 replaced with alanines; source: E. coli Rosetta (DE3) pLysS, purified (Ni-NTA agarose); not shown: His6, N-terminal, kept; myc, C-terminal, kept
In the case of B8, in data set [5], the “stoichiometry N” value amounted to 2.

B9: PACT-dsRBDmt1 (natural protein, human, UniProt O75569 1-313, looked up)
chain: T2 chain with K84A, K85A
notes: human PACT with lysines 84 and 85 in dsRBD1 replaced with alanines; source: E. coli Rosetta (DE3) pLysS, purified (Ni-NTA agarose); not shown: His6, N-terminal, kept; myc, C-terminal, kept
On to B9, for which the “stoichiometry N” value in data set [5] was found to be 2.

B10: dsDNA_Luc2-153 (dsDNA)
DNA 1: TCGAAGTATTCCGCGTACGTG
DNA 2: CGTACGCGGAATACTTCGATT
With B10, the binding result in data set [1] was “no binding”.

B11: ssRNA_Luc-36 (ssRNA)
RNA: UCUUCCAGCGGAUAGAAUGGC
Consider B11, for which the binding result in data set [1] (single strand) is recorded as “no binding”.

B12: siLuc-36 (dsRNA)
RNA 1: UCUUCCAGCGGAUAGAAUGGC
RNA 2: CAUUCUAUCCGCUGGAAGAUG
As to B12, the Kd in data set [3] (2 nt 3' overhangs) was 5.3 nM; in data set [6] it was 5 nM.

B13: siLuc-18 (dsRNA)
RNA 1: GGCGCCGGGCCUUUCUUUAUG
RNA 2: UAAAGAAAGGCCCGGCGCCAU
As for B13, the Kd in data set [3] (2 nt 3' overhangs) worked out at 5.8 nM.

B14: ssRNA_Luc2-153 (ssRNA)
RNA: UCGAAGUAUUCCGCGUACGUG
With B14, the binding result in data set [1] (single strand) is listed as “no binding”.

B15: siLuc-30 (dsRNA)
RNA 1: UCUUCAUAGAAUGGCGCCGGG
RNA 2: CGGCGCCAUUCUAUGAAGAUG
With B15, in data set [3] (2 nt 3' overhangs), the Kd was 6.2 nM.

B16: siLuc2-153B (dsRNA)
RNA 1: UCGAAGUAUUCCGCGUACGUG
RNA 2: CACGUACGCGGAAUACUUCGA
As for B16, in data set [3] (blunt), the dissociation constant (Kd) stood at 5.1 nM.

Broadly, the Kd is the equilibrium constant for the complex coming apart. One may read the stoichiometry N as the number of molecules, sites or subunits per partner or assembly.
